The values that follow come from publication PMC12095920.

Test [1] addresses tau^4R construct (four microtubule-binding repeat domains of human tau) (human) (UniProt P10636).
For test [2], the target named is tau^4R construct (four microtubule-binding repeat domains of human tau) (human), P10636.
Chain of tau^4R construct (four microtubule-binding repeat domains of human tau) (human), P10636 (P10636 561-689): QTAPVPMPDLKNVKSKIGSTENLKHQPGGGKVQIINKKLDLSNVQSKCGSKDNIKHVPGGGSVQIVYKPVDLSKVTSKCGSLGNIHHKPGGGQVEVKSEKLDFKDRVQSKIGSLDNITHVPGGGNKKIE

For “apical domain of human CCT3 (from UniProt P49368 223-383) (domain or fragment)”, in test [1], the ThT fluorescence after 23 h in the presence of apiCCT3, relative to tau^4R alone (not shown) was 2.5%.

B1: apical domain of human CCT7, Q99832 207-376 (domain or fragment)
chain: DSQLVAGVAFKKTFSYAGFEMQPKKYHNPKIALLNVELELKAEKDNAEIRVHTVEDYQAIVDAEWNILYDKLEKIHHSGAKVVLSKLPIGDVATQYFADRDMFCAGRVPEEDLKRTMMACGGSIQTSVNALSADVLGRCQVFEETQIGGERYNFFTGCPKAKTCTFILRG
In the case of B1, in test [2], the ThT fluorescence after 23 h in the presence of apiCCT7, relative to tau^4R alone amounted to 30%.
